The text below walks through data of paper doi:10.1101/2022.09.29.510206 (bioRxiv, 2022).

B1: mouse Fz8_(CRD-Connector), residues 30-170 (domain or fragment, UniProt Q61091 30-170, looked up)
chain: AKELACQEITVPLCKGIGYNYTYMPNQFNHDTQDEAGLEVHQFWPLVEIQCSPDLKFFLCSMYTPICLEDYKKPLPPCRSVCERAKAGCAPLMRQYGFAWPDRMRCDRLPEQGNPDTLCMDYNRTDLTTAAPSPPRRLPPP
B2: chimaera of Fz4CRD+Fz8_(Connector) (domain or fragment, human | mouse, UniProt Q9ULV1 42-151, looked up)
chain: ERRCDPIRISMCQNLGYNVTKMPNLVGHELQTDAELQLTTFTPLIQYGCSSQLQFFLCSVYVPMCTEKINIPIGPCGGMCLSVKRRCEPVLKEFGFAWPESLNCSKFPPQGNPDTLCMDYNRTDLTTAAPSPPRRLPPP
B3: Fz4_(CRD-Connector) (M105N) mutant (domain or fragment, human, UniProt Q9ULV1 42-179, looked up)
chain: ERRCDPIRISMCQNLGYNVTKMPNLVGHELQTDAELQLTTFTPLIQYGCSSQLQFFLCSVYVPNCTEKINIPIGPCGGMCLSVKRRCEPVLKEFGFAWPESLNCSKFPPQNDHNHMCMEGPGDEEVPLPHKTPIQPGE
modifications: M105N is meant to introduce an N-linked glycosylation site

Norrin (Norrie Disease Protein), biotinylated, sequence (Q00604 25-133): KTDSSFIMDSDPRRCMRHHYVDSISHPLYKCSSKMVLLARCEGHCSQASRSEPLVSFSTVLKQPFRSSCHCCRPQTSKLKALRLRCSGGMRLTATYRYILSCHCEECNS

The experiment has as its target Norrin (Norrie Disease Protein), biotinylated (UniProt Q00604 25-133, biotin (in vivo biotinylation)). The experiment is described as follows: SPR. In general terms: Surface plasmon resonance follows binding to a sensor surface in real time, without labels.
Take B1: the “fold weaker affinity than Fz4_(CRD-Connector)” value is roughly 55 fold.
B2: the “fold weaker affinity than Fz4_(CRD-Connector)” value is roughly 15 fold.
The value for B3 was roughly 53 fold.
